How the values were obtained:
[1] = target: T1, CD40 L (Homo sapiens, UniProt P29965); test: Dot blot binding of mFLINT to TNF ligands
T1 construct: purchased
T1 sequence (P29965 113-261 limits assumed): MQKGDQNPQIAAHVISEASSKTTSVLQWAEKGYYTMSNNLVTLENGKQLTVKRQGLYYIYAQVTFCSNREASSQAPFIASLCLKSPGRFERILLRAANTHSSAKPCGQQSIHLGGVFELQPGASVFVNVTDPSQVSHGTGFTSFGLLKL

[2] = tested on: LIGHT; test: LIGHT cell surface binding assay by flow cytometry; conditions: LIGHT expressing cells preincubated with 10 fold excess of non tagged mFLINT
Protocol: To confirm the dot blot binding between LIGHT and mFLINT, 293 cells were transiently transfected with LIGHT expression construct overnight. On the next day, cells were detached and incubated with mFLINT-Flag on ice. […] As a control we used vector transfected cells. To make sure that the binding was specific, a competition assay with 10 fold access of untagged mFLINT was performed.
More particularly, 6 well dishes of cells were transfected as above. Both vector and m-LIGHT expressing cells were provided. Cells were detached from the plates by vigorous pipetting with a P100 Pipettor. Then, in PBS/BSA, 0.1%, cells were exposed to one of the following combinations, set forth in a-d.
a. GST/flag, mFLINT/flag, or HVEM at 20 nM;
b. FLINT/flag at 20 nM+GST/flag or mFLINT or HVEM at 200 nM;
c. FLINT/flag at 20 nM+HVEM+anti-human FAS ligand at 200 n-M;
d. anti-human FAS ligand-biotin at 1 μg/ml
Cells were incubated on ice for 30 minutes and washed with PBS/BSA, 0.1%. Cells then were exposed either to anti-human IgG-biotin, 1 μg/ml (for detection of HVEM), or to M2-biotin, 2 μg/ml (for detection of flag conjugates). Cells were incubated on ice for 30 minutes and washed with PBS/BSA, 0.1%. Thereafter, cells were exposed to streptavidin Alexa 488 (SIGMA) at a 1:1000 dilution. Again, cells were incubated on ice for 30 minutes and washed with PBS/BSA, 0.1 1%. Cells were analyzed using a FACSORT flow cytometer (Decton Dickinson) to determine binding.

[3] = tested on: BALB/c mice; test: LPS/galactosamine liver damage and sepsis model, survival; format: in vivo, mouse; conditions: for survival of mice: FIG. 5, mFLINT 200 μg i.v.
Protocol: Specifically, the activity of the polypeptides of the present invention against acute inflammation and apoptosis was determined using the following procedure. Briefly, BALB/c mice (Harlan) per each experimental group were given intravenous injections (the lateral tail vein) of 6 mg of D(+)-Galactosamine (Sigma, 39F-0539) in 100 μl of PBS (GIBCO-BRL) and 3 μg of Lipopolysaccharide B E. coli 026:B6 (LPS) (Difco, 3920-25-2) in 100 μl of PBS. The LPS was administered, via i.v. injection, 5 minutes after the galactosamine, which was administered i.v. […] C. F. et al J. Immunol. 1989. 142: 3884), and Anti-mouse Fas Ligand (500 μg, PharMingen, M024301) at 0, 2, 4, 6 hour-point respectively. The survival rates of the mice were determined 24 and 48 hours after LPS injection.

B1: mFLINT: mature FLINT without leader peptide (FIG. 3), soluble TNFR superfamily member, made according to Examples 8 and 9 (protein)
chain: VAETPTYPWRDAETGERLVCAQCPPGTFVQRPCRRDSPTTCGPCPPRHYTQFWNYLERCRYCNVLCGEREEEARACHATHNRACRCRTGFFAHAGFCLEHASCPPGAGVIAPGTPSQNTQCQPCPPGTFSASSSSSEQCQPHRNCTALGLALNVPGSSSHDTLCTSCTGFPLSTRVPGAEECERAVIDFVAFQDISIKRLQRLLQALEAPEGWGPTPRAGRAALQLKLRRRLTELLGAQDGALLVRLLQALRVARMPGLERSVRERFLPVH
modifications: glycosylated
In the case of B1, the “binding in dot blot” value [1] is reported as “No appreciable binding”, the “competition of mFLINT-Flag binding” value [2] is reported as “completely reversed to baseline peak” and the survival of mice ([3]; administered 2 hours before LPS/GalN) is reported as 100%. For the same molecule, the survival of mice ([3]; administered 4 hours after LPS/GalN, survival at 48 hours) was 80%, the “animals survived to 48 hours” value ([3]; FIG. 6, 50 ug mFLINT) was “about 70%” and the “animals alive 48 hours after LPS/GalN” value ([3]; FIG. 6, 400 ug i.p., 2 hours before LPS/GalN challenge) was 100%. The survival ([3]; FIG. 7, 1 ug iv, 4-hour post-LPS/GalN) was “about 2%”, the survival ([3]; FIG. 7, 5 ug iv, 4-hour post-LPS/GalN) was 20% and the survival ([3]; FIG. 7, 10 ug iv, 4-hour post-LPS/GalN) was 40%. It also gave a survival ([3]; FIG. 7, 50 ug iv, 4-hour post-LPS/GalN) of 80%, a survival ([3]; FIG. 7, 100 μg mFLINT IP, 4 hours after LPS/GalN) of 80% and a survival ([3]; FIG. 7, 100 μg mFLINT iv, 4 hours after LPS/GalN) of 100%. The “effect on survival, ip compared with iv” value ([3]; FIG. 7, 100 μg mFLINT, 12 or 2 hours before LPS/GalN) was “the same”, the animals survived ([3]; IP 200 μg mFLINT, 2 hours post-challenge with 3 μg LPS) was 100% and the animals survived ([3]; IP 200 μg mFLINT, 6 hours post-challenge with 3 μg LPS) was 60%. The animals survived ([3]; IP, 4 hours post-challenge with 3 μg LPS (mFLINT 200 μg)) was 73%.

Reference: patent publication US20040167074A1, “Therapeutic applications of mFLINT polypeptides” (priority 1998, published 2004)
